Source: the Human Domainome abundance scans (Beltran et al. 2025)
± gives the uncertainty stated by the source.

B1: Retinoic acid receptor beta, residues 85 to 161; numbered along this chain, P10826 (parent)
chain: YKPCFVCQDKSSGYHYGVSACEGCKGFFRRSIQKNMIYTCHRDKNCVINKVTRNRCQYCRLQKCFEVGMSKESVRND

Variants of: B1
Test: abundance fitness (aPCA) (normalised: wild type 0, dead -1); higher = more abundant; growth selection in yeast, the domain comes from the species named
Conditions: Homo sapiens

Question: With YKPCFVCQDKSSGYHYGVSACEGCKGFFRRSIQKNMIYTCHRDKNCVINKVTRNRCQYCRLQKCFEVGMSKMSVRND [E72M] as the variant, how does the abundance fitness read?
Answer: Its abundance fitness is -0.098 ± 0.053.

Question: With YKPCFVCQDKSSGYHYGVSACEGCKGFFRRSIQKNMIYTCHRDKNCVINKVTRNRCQYCRLQKCFEVGMSKNSVRND [E72N] as the variant, how does the abundance fitness read?
Answer: The abundance fitness was 0.04 ± 0.07.

Question: For YKPCFVCQDKSSGYHYGVSACEGCKGFFRRSIQKNMIYTCHRDKNCVINKVTRNRCQYCRLQKCFEVGMSKPSVRND [E72P], which abundance fitness is on record?
Answer: Its abundance fitness is -0.101 ± 0.076.

Question: Which abundance fitness does the source give for YKPCFVCQDKSSGYHYGVSACEGCKGFFRRSIQKNMIYTCHRDKNCVINKVTRNRCQYCRLQKCFEVGMSKQSVRND [E72Q] here?
Answer: Its abundance fitness is -0.134 ± 0.075.

Question: Which abundance fitness does the source give for YKPCFVCQDKSSGYHYGVSACEGCKGFFRRSIQKNMIYTCHRDKNCVINKVTRNRCQYCRLQKCFEVGMSKRSVRND [E72R] here?
Answer: The abundance fitness was -0.151 ± 0.043.

Question: With YKPCFVCQDKSSGYHYGVSACEGCKGFFRRSIQKNMIYTCHRDKNCVINKVTRNRCQYCRLQKCFEVGMSKSSVRND [E72S] as the variant, how does the abundance fitness read?
Answer: Its abundance fitness is -0.037 ± 0.048.

Question: Which abundance fitness does the source give for YKPCFVCQDKSSGYHYGVSACEGCKGFFRRSIQKNMIYTCHRDKNCVINKVTRNRCQYCRLQKCFEVGMSKTSVRND [E72T] here?
Answer: Its abundance fitness is -0.004 ± 0.064.

Question: Which abundance fitness does the source give for YKPCFVCQDKSSGYHYGVSACEGCKGFFRRSIQKNMIYTCHRDKNCVINKVTRNRCQYCRLQKCFEVGMSKVSVRND [E72V] here?
Answer: Its abundance fitness is -0.163 ± 0.048.

Question: For YKPCFVCQDKSSGYHYGVSACEGCKGFFRRSIQKNMIYTCHRDKNCVINKVTRNRCQYCRLQKCFEVGMSKWSVRND [E72W], which abundance fitness is on record?
Answer: Its abundance fitness is -0.271 ± 0.068.

Question: With YKPCFVCQDKSSGYHYGVSACEGCKGFFRRSIQKNMIYTCHRDKNCVINKVTRNRCQYCRLQKCFEVGMSKEAVRND [S73A] as the variant, how does the abundance fitness read?
Answer: Its abundance fitness is 0.1 ± 0.043.

Question: With YKPCFVCQDKSSGYHYGVSACEGCKGFFRRSIQKNMIYTCHRDKNCVINKVTRNRCQYCRLQKCFEVGMSKEDVRND [S73D] as the variant, how does the abundance fitness read?
Answer: Its abundance fitness is 0.133 ± 0.056.

Question: With YKPCFVCQDKSSGYHYGVSACEGCKGFFRRSIQKNMIYTCHRDKNCVINKVTRNRCQYCRLQKCFEVGMSKEEVRND [S73E] as the variant, how does the abundance fitness read?
Answer: The abundance fitness was 0.091 ± 0.046.

Question: For YKPCFVCQDKSSGYHYGVSACEGCKGFFRRSIQKNMIYTCHRDKNCVINKVTRNRCQYCRLQKCFEVGMSKEFVRND [S73F], which abundance fitness is on record?
Answer: Its abundance fitness is -0.016 ± 0.086.

Question: For YKPCFVCQDKSSGYHYGVSACEGCKGFFRRSIQKNMIYTCHRDKNCVINKVTRNRCQYCRLQKCFEVGMSKEGVRND [S73G], which abundance fitness is on record?
Answer: Its abundance fitness is 0.017 ± 0.034.

Question: Which abundance fitness does the source give for YKPCFVCQDKSSGYHYGVSACEGCKGFFRRSIQKNMIYTCHRDKNCVINKVTRNRCQYCRLQKCFEVGMSKEHVRND [S73H] here?
Answer: The abundance fitness was -0.061 ± 0.1.

Question: For YKPCFVCQDKSSGYHYGVSACEGCKGFFRRSIQKNMIYTCHRDKNCVINKVTRNRCQYCRLQKCFEVGMSKEKVRND [S73K], which abundance fitness is on record?
Answer: The abundance fitness was 0.131 ± 0.052.

Question: With YKPCFVCQDKSSGYHYGVSACEGCKGFFRRSIQKNMIYTCHRDKNCVINKVTRNRCQYCRLQKCFEVGMSKELVRND [S73L] as the variant, how does the abundance fitness read?
Answer: The abundance fitness was 0.088 ± 0.04.

Question: For YKPCFVCQDKSSGYHYGVSACEGCKGFFRRSIQKNMIYTCHRDKNCVINKVTRNRCQYCRLQKCFEVGMSKEMVRND [S73M], which abundance fitness is on record?
Answer: Its abundance fitness is 0.092 ± 0.055.

Question: For YKPCFVCQDKSSGYHYGVSACEGCKGFFRRSIQKNMIYTCHRDKNCVINKVTRNRCQYCRLQKCFEVGMSKEPVRND [S73P], which abundance fitness is on record?
Answer: Its abundance fitness is 0.002 ± 0.068.

Question: Which abundance fitness does the source give for YKPCFVCQDKSSGYHYGVSACEGCKGFFRRSIQKNMIYTCHRDKNCVINKVTRNRCQYCRLQKCFEVGMSKEQVRND [S73Q] here?
Answer: Its abundance fitness is -0.043 ± 0.057.

Question: Which abundance fitness does the source give for YKPCFVCQDKSSGYHYGVSACEGCKGFFRRSIQKNMIYTCHRDKNCVINKVTRNRCQYCRLQKCFEVGMSKERVRND [S73R] here?
Answer: The abundance fitness was 0.016 ± 0.034.

Question: Which abundance fitness does the source give for YKPCFVCQDKSSGYHYGVSACEGCKGFFRRSIQKNMIYTCHRDKNCVINKVTRNRCQYCRLQKCFEVGMSKETVRND [S73T] here?
Answer: The abundance fitness was -0.106 ± 0.065.

Question: With YKPCFVCQDKSSGYHYGVSACEGCKGFFRRSIQKNMIYTCHRDKNCVINKVTRNRCQYCRLQKCFEVGMSKEVVRND [S73V] as the variant, how does the abundance fitness read?
Answer: Its abundance fitness is 0.001 ± 0.042.

Question: For YKPCFVCQDKSSGYHYGVSACEGCKGFFRRSIQKNMIYTCHRDKNCVINKVTRNRCQYCRLQKCFEVGMSKEWVRND [S73W], which abundance fitness is on record?
Answer: Its abundance fitness is -0.091 ± 0.046.

Question: Which abundance fitness does the source give for YKPCFVCQDKSSGYHYGVSACEGCKGFFRRSIQKNMIYTCHRDKNCVINKVTRNRCQYCRLQKCFEVGMSKEYVRND [S73Y] here?
Answer: The abundance fitness was -0.231 ± 0.092.

Question: Which abundance fitness does the source give for YKPCFVCQDKSSGYHYGVSACEGCKGFFRRSIQKNMIYTCHRDKNCVINKVTRNRCQYCRLQKCFEVGMSKESCRND [V74C] here?
Answer: The abundance fitness was 0.003 ± 0.064.

Question: Which abundance fitness does the source give for YKPCFVCQDKSSGYHYGVSACEGCKGFFRRSIQKNMIYTCHRDKNCVINKVTRNRCQYCRLQKCFEVGMSKESDRND [V74D] here?
Answer: The abundance fitness was 0.094 ± 0.072.

Question: For YKPCFVCQDKSSGYHYGVSACEGCKGFFRRSIQKNMIYTCHRDKNCVINKVTRNRCQYCRLQKCFEVGMSKESFRND [V74F], which abundance fitness is on record?
Answer: The abundance fitness was -0.064 ± 0.081.

Question: For YKPCFVCQDKSSGYHYGVSACEGCKGFFRRSIQKNMIYTCHRDKNCVINKVTRNRCQYCRLQKCFEVGMSKESGRND [V74G], which abundance fitness is on record?
Answer: The abundance fitness was -0.081 ± 0.041.

Question: With YKPCFVCQDKSSGYHYGVSACEGCKGFFRRSIQKNMIYTCHRDKNCVINKVTRNRCQYCRLQKCFEVGMSKESHRND [V74H] as the variant, how does the abundance fitness read?
Answer: The abundance fitness was -0.13 ± 0.15.

Question: With YKPCFVCQDKSSGYHYGVSACEGCKGFFRRSIQKNMIYTCHRDKNCVINKVTRNRCQYCRLQKCFEVGMSKESIRND [V74I] as the variant, how does the abundance fitness read?
Answer: The abundance fitness was 0.036 ± 0.062.

Question: For YKPCFVCQDKSSGYHYGVSACEGCKGFFRRSIQKNMIYTCHRDKNCVINKVTRNRCQYCRLQKCFEVGMSKESKRND [V74K], which abundance fitness is on record?
Answer: The abundance fitness was -0.219 ± 0.065.

Question: With YKPCFVCQDKSSGYHYGVSACEGCKGFFRRSIQKNMIYTCHRDKNCVINKVTRNRCQYCRLQKCFEVGMSKESLRND [V74L] as the variant, how does the abundance fitness read?
Answer: The abundance fitness was -0.018 ± 0.041.

Question: With YKPCFVCQDKSSGYHYGVSACEGCKGFFRRSIQKNMIYTCHRDKNCVINKVTRNRCQYCRLQKCFEVGMSKESMRND [V74M] as the variant, how does the abundance fitness read?
Answer: The abundance fitness was -0.027 ± 0.059.

Question: With YKPCFVCQDKSSGYHYGVSACEGCKGFFRRSIQKNMIYTCHRDKNCVINKVTRNRCQYCRLQKCFEVGMSKESNRND [V74N] as the variant, how does the abundance fitness read?
Answer: The abundance fitness was -0.067 ± 0.086.

Question: For YKPCFVCQDKSSGYHYGVSACEGCKGFFRRSIQKNMIYTCHRDKNCVINKVTRNRCQYCRLQKCFEVGMSKESPRND [V74P], which abundance fitness is on record?
Answer: Its abundance fitness is -0.068 ± 0.078.
